# Paper PMC3808355
# System: ProQ (Escherichia coli (BW25113-derived; ASKA pCA24N clone or pMCSG7 clone))
# Test: tryptophan fluorescence titration
# Details: 20 nM ProQ, excitation 295 nm, emission 355 nm, buffer, salt, pH and temperature not in the material
row,Substance,Kd
1,proP P1 mRNA,17 nM
2,proP P2 mRNA,11.6 nM
3,rpoS mRNA,19.5 nM
